Assay [1] concerns the target T1, Human CD93 on cells (human CD93 expressing CHO cells; HUVEC, U937 and KG1a cells) (human, UniProt Q9NPY3 22-652).
T1 construct: whole, on cells; also called hCD93 expressing CHO cells; hCD93 CHO cells
T1 sequence (looked up): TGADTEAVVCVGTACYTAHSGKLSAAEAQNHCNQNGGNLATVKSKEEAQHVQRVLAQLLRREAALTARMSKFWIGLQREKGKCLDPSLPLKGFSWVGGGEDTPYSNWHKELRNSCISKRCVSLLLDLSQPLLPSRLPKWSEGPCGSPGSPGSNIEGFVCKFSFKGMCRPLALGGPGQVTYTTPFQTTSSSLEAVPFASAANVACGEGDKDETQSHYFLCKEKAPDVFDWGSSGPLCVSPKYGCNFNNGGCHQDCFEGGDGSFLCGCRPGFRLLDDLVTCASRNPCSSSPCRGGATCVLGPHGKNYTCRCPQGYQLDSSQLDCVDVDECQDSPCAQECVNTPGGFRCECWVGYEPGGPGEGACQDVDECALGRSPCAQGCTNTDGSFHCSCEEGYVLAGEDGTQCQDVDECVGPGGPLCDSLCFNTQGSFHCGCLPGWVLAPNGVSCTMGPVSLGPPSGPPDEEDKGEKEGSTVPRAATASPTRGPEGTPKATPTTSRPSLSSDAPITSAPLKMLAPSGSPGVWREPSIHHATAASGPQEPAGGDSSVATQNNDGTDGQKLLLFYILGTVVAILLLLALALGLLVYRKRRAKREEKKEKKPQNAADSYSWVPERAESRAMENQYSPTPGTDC
The assay is described as follows: flow cytometry titration, KG1a cells. As to the method: (§1) KG1a cells were detached by incubation with TrypLE reagents (Thermo Fisher), which preserves the integrity of CD93 on the cell surface. Then the cells were incubated with serial diluted anti-CD93 antibodies for 30 minutes at 4° C. After washing by FACS buffer, the cells were incubated with Alexa Fluor 647 conjugated anti-human IgG (Jackson ImmunoResearch) for 30 minutes in 4° C. After washing by FACS buffer twice, the samples were acquired in NovoCyte Flow Cytometer and analyzed by NovoExpress software.

Assay [2] deals with T1, Human CD93 on cells (human CD93 …). The assay is described as follows: summary table, column FACS (KG1a cells). As to the method:
as §1, §1

The target in assay [3] is T2, Human CD93 recombinant protein (Sino Biological Inc, Catalog #12589-H08H) (human, UniProt Q9NPY3 22-580).
T2 construct: Biotinylated (EZ-LINK NHS-PEG4 biotin) in the BLI assays; also called hCD93; His-tagged human CD93
T2 sequence (looked up): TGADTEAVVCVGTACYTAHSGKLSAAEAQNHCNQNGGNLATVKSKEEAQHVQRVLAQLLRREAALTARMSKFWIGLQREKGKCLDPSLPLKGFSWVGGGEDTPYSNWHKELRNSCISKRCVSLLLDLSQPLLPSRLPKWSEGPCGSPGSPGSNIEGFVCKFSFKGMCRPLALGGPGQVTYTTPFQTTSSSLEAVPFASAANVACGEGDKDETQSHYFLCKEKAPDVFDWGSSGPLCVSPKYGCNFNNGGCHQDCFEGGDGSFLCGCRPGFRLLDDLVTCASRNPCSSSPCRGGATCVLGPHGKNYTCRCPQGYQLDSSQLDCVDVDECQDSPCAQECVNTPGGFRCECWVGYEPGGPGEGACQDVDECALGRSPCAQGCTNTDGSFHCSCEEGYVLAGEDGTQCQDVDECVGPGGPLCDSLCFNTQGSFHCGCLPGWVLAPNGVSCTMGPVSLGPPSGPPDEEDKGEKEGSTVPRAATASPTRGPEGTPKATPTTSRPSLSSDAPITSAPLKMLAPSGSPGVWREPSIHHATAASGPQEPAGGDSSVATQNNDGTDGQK
The assay is described as follows: summary table, column ELISA (hCD93); 4 weeks at 40 C. As to the method: (§2) His-tagged human CD93 was coated onto a 96 well plate at 1 μg/mL in 1×PBS overnight at 4° C. The plate was washed with ELISA wash buffer (Boston BioProduct, Inc.) and the wells were blocked with ELISA blocking buffer for 1 hour at 37° C. […] The plate was washed with ELISA wash Buffer. HRP-conjugated anti-human Fc antibody was incubated for 1 hour at 37° C. The plate was washed with ELISA wash Buffer. HRP substrate was added for indirect detection of the antibodies binding to CD93.
as §2

In assay [4] the target is T2, Human CD93 recombinant protein (Sino …). The assay is described as follows: summary table, column Octet (hCD93); 2 weeks at 40 C. As to the method: (§3) The binding affinity of anti-CD93 antibodies was determined with bio-layer interferometry using Octet QKe (Fortebio). […] Human CD93 recombinant protein (Sino Biological Inc, Catalog #12589-H08H) was biotinylated using EZ-LINK NHS-PEG4 biotin (Thermo Fisher Scientific). Streptavidin biosensors (Fortebio) were used to load biotinylated CD93 protein (300 seconds in 5 μg/ml). Baseline was stabilized for 60 seconds in 1×kinetics buffer (Fortebio) before anti-CD93 antibodies, at a serial dilution, were allowed to associate for 300 seconds with captured protein. Then the sensors were dissociated in 1× kinetics buffer for 600 seconds. […] (FIG. 41).
as §3, with “1× kinetics” for “1×kinetics”, “42).” for “41).”
(In general: In BLI a coated tip is dipped into the sample, and binding shifts an interference pattern.)

Assay [5] shares this target. The assay is described as follows: summary table, column Octet (hCD93); 4 weeks at 40 C. As to the method: as §3
as §3, with “1× kinetics” for “1×kinetics”, “42).” for “41).”

Assay [6] addresses T1, Human CD93 on cells (human CD93 …). The assay is described as follows: summary table, column FACS (CHO-hCD93 cells); 2 weeks at 40 C.
The target is the same in assay [7]. The assay is described as follows: summary table, column FACS (CHO-hCD93 cells); 4 weeks at 40 C.

The term EC50 denotes the concentration needed to bring the measured effect to its halfway point. As usually defined, the Kd is the concentration at which binding is half-saturated.

B1: h7F3 (humanized 7F3, VH3+VL3) (antibody, human IgG1, V domains shown)
VH: QVQLVQSGAEVKKPGASVKVSCKASGYTFTDYEMHWVRQAPGQGLEWMGGIDPETGDTAYNQNFKGRVTMTTDTSTSTAYMELRSLTSDDTAVYYCTNYGNLYYYAMDYWGQGTSVTVSS
VL: EIVLTQSPSSLSASVGDRVTITCRASSSVSSSYLHWYQQKPGKAPKLLIYSTSNLAFGVPSRFSGSGSGTSYTFTISSLQPEDIATYYCQQYSGYPLTFGSGTKLEIK
notes: also called humanized 7F3-hIgG1
Regarding B1, the EC50 was 0.024 nM in assay [1]; 0.024 nM in assay [2]; 0.0407 nM in assay [3]; 0.194 nM in assay [6]; 0.195 nM in assay [7]. Also, the dissociation constant (Kd) in assay [4] came to 0.495 nM; in assay [5], 0.487 nM.

B2: h16E4 (humanized 16E4, VH4+VL6) (antibody, V domains shown)
VH: QVQLVQSGAEVKKPGASVKVSCKASGYTFTSYWMHWVRQAPGQGLEWMGEIDPSASYTYYNQKFKGRVTMTRDKSSSTVYMELSSLTSEDSAVYYCARSVYYGNKYFDVWGAGTTVTVSS
VL: DIQMTQSPSTLSASVGDRVTITCKASQSVDYAGDSYMNWYQQKPGKAPKLLIYAASNLESGVPSRFSGSGSGTEFTLTISSLQPDDFATYYCQQTNEDPRTFGGGTKLEIK
notes: Detected with anti-human IgG, so a human Fc
Turning to B2, the EC50 in assay [1] came out at 0.131 nM; in assay [2], 0.131 nM; in assay [3] it was 0.051 nM; in assay [6], 0.274 nM; in assay [7] it was 0.312 nM. In addition, the values for the Kd in assay [4] and in assay [5] were 0.0204 nM and 0.112 nM, respectively.

The values are drawn from patent US20230365705A1 (DYNAMICURE BIOTECHNOLOGY, published 2023).
